B1: EGFP-RASSF1 (wild type) [not stated] / mCherry-SARAH_(MST1) [not stated] (parent complex)
chain 1: MSGEPELIELRELAPAGRAGKGRTRLERANALRIARGTACNPTRQLVPGRGHRFQPAGPATHTWCDLCGDFIWGVVRKGLQCAHCKFTCHYRCRALVCLDCCGPRDLGWEPAVERDTNVDEPVEWETPDLSQAEIEQKIKEYNAQINSNLFMSLNKDGSYTGFIKVQLKLVRPVSVPSSKKPPSLQDARRGPGRGTSVRRRTSFYLPKDAVKHLHVLSRTRAREVIEALLRKFLVVDDPRKFALFERAERHGQVYLRKLLDDEQPLRLRLLAGPSDKALSFVLKENDSGEVNWDAFSMPELHNFLRILQREEEEHLRQILQKYSYCRQKIQEALHACPLG
chain 2: DYEFLKSWTVEDLQKRLLALDPMMEQEIEEIRQKYQSKRQPILDAIEAKKRRQQNF
B2: EGFP-RASSF1 (wild type) [not stated] / myc-MST1 K59R [not stated] (parent complex)
chain 1: B1 chain 1
chain 2: METVQLRNPPRRQLKKLDEDSLTKQPEEVFDVLEKLGEGSYGSVYKAIHKETGQIVAIRQVPVESDLQEIIKEISIMQQCDSPHVVKYYGSYFKNTDLWIVMEYCGAGSVSDIIRLRNKTLTEDEIATILQSTLKGLEYLHFMRKIHRDIKAGNILLNTEGHAKLADFGVAGQLTDTMAKRNTVIGTPFWMAPEVIQEIGYNCVADIWSLGITAIEMAEGKPPYADIHPMRAIFMIPTNPPPTFRKPELWSDNFTDFVKQCLVKSPEQRATATQLLQHPFVRSAKGVSILRDLINEAMDVKLKRQESQQREVDQDDEENSEEDEMDSGTMVRAVGDEMGTVRVASTMTDGANTMIEHDDTLPSQLGTMVINAEDEEEEGTMKRRDETMQPAKPSFLEYFEQKEKENQINSFGKSVPGPLKNSSDWKIPQDGDYEFLKSWTVEDLQKRLLALDPMMEQEIEEIRQKYQSKRQPILDAIEAKKRRQQNF
B3: EGFP-RASSF5C (wild type) [not stated] / myc-MST1 K59R [not stated] (parent complex)
chain 1: MTVDSSMSSGYCSLDEELEDCFFTAKTTFFRNAQSKHLSKNVCKPVEETQRPPTLQEIKQKIDSYNTREKNCLGMKLSEDGTYTGFIKVHLKLRRPVTVPAGIRPQSIYDAIKEVNLAATTDKRTSFYLPLDAIKQLHISSTTTVSEVIQGLLKKFMVVDNPQKFALFKRIHKDGQVLFQKLSIADRPLYLRLLAGPDTEVLSFVLKENETGEVEWDAFSIPELQNFLTILEKEEQDKIQQVQKKYDKFRQKLEEALRESQGKPG
chain 2: B2 chain 2
B4: EGFP-RASSF5C (wild type) [not stated] / mCherry-SARAH_(MST1) [not stated] (parent complex)
chain 1: B3 chain 1
chain 2: B1 chain 2

This is an account of results in publication PMC4919659 (2016).

The variants in one test derive from B1. Put plainly: FRET-FLIM in cells (EGFP donor lifetime, monoexponential fit, wide-field imaging); co-expressed with mCherry-SARAH(MST1); median of segmented cells; parent: 2.25e+03; read off a plot.
Take chain 1 MSGEPELIELRELAPAGRAGKGRTRLERANALRIARGTACNPTRQLVPGRGHRFQPAGPATHTWCDLCGDFIWGVVRKGLQCAHCKFTCHYRCRALVCLDCCGPRDLGWEPAVERDTNVDEPVEWETPDLSQAEIEQKIKEYNAQINSNLFMSLNKDGSYTGFIKVQLKLVRPVSVPSSKKPPSLQDARRGPGRGTSVRRRTSFYLPKDAVKHLHVLSRTRAREVIEALLRKFLVVDDPRKFALFERAERHGQVYLRKLLDDEQPLRLRLLAGPSDKALSFVLKENDSGEVNWDAFSMPEPHNFLRILQREEEEHLRQILQKYSYCRQKIQEALHACPLG [chain 1 L301P]: the response is around 2510 ps. Regarding chain 1 MSGEPELIELRELAPAGRAGKGRTRLERANALRIARGTACNPTRQLVPGRGHRFQPAGPATHTWCDLCGDFIWGVVRKGLQCAHCKFTCHYRCRALVCLDCCGPRDLGWEPAVERDTNVDEPVEWETPDLSQAEIEQKIKEYNAQINSNLFMSLNKDGSYTGFIKVQLKLVRPVSVPSSKKPPSLQDARRGPGRGTSVRRRTSFYLPKDAVKHLHVLSRTRAREVIEALLRKFLVVDDPRKFALFERAERHGQVYLRKLLDDEQPLRLRLLAGPSDKALSFVLKENDSGEVNWDAFSMPELHNFPRILQREEEEHLRQILQKYSYCRQKIQEALHACPLG [chain 1 L305P], the response was around 2490 ps. The same measure, in the same setting: the value for chain 1 MSGEPELIELRELAPAGRAGKGRTRLERANALRIARGTACNPTRQLVPGRGHRFQPAGPATHTWCDLCGDFIWGVVRKGLQCAHCKFTCHYRCRALVCLDCCGPRDLGWEPAVERDTNVDEPVEWETPDLSQAEIEQKIKEYNAQINSNLFMSLNKDGSYTGFIKVQLKLVRPVSVPSSKKPPSLQDARRGPGRGTSVRRRTSFYLPKDAVKHLHVLSRTRAREVIEALLRKFLVVDDPRKFALFERAERHGQVYLRKLLDDEQPLRLRLLAGPSDKALSFVLKENDSGEVNWDAFSMPELHNFLRIPQREEEEHLRQILQKYSYCRQKIQEALHACPLG [chain 1 L308P] was around 2500 ps.

The variants in a further test derive from B2. The test can be described thus: co-immunoprecipitation (IP anti-myc, IB anti-GFP), band quantification; n = 3; parent: 1.05; read off a plot.
Take chain 1 MSGEPELIELRELAPAGRAGKGRTRLERANALRIARGTACNPTRQLVPGRGHRFQPAGPATHTWCDLCGDFIWGVVRKGLQCAHCKFTCHYRCRALVCLDCCGPRDLGWEPAVERDTNVDEPVEWETPDLSQAEIEQKIKEYNAQINSNLFMSLNKDGSYTGFIKVQLKLVRPVSVPSSKKPPSLQDARRGPGRGTSVRRRTSFYLPKDAVKHLHVLSRTRAREVIEALLRKFLVVDDPRKFALFERAERHGQVYLRKLLDDEQPLRLRLLAGPSDKALSFVLKENDSGEVNWDAFSMPELHNFPRILQREEEEHLRQILQKYSYCRQKIQEALHACPLG [chain 1 L305P]: the ratio to parent is around 0.07. Same read-out and setting: the value for chain 1 MSGEPELIELRELAPAGRAGKGRTRLERANALRIARGTACNPTRQLVPGRGHRFQPAGPATHTWCDLCGDFIWGVVRKGLQCAHCKFTCHYRCRALVCLDCCGPRDLGWEPAVERDTNVDEPVEWETPDLSQAEIEQKIKEYNAQINSNLFMSLNKDGSYTGFIKVQLKLVRPVSVPSSKKPPSLQDARRGPGRGTSVRRRTSFYLPKDAVKHLHVLSRTRAREVIEALLRKFLVVDDPRKFALFERAERHGQVYLRKLLDDEQPLRLRLLAGPSDKALSFVLKENDSGEVNWDAFSMPELHNFLRIPQREEEEHLRQILQKYSYCRQKIQEALHACPLG [chain 1 L308P] was around 0.13; that for chain 1 MSGEPELIELRELAPAGRAGKGRTRLERANALRIARGTACNPTRQLVPGRGHRFQPAGPATHTWCDLCGDFIWGVVRKGLQCAHCKFTCHYRCRALVCLDCCGPRDLGWEPAVERDTNVDEPVEWETPDLSQAEIEQKIKEYNAQINSNLFMSLNKDGSYTGFIKVQLKLVRPVSVPSSKKPPSLQDARRGPGRGTSVRRRTSFYLPKDAVKHLHVLSRTRAREVIEALLRKFLVVDDPRKFALFERAERHGQVYLRKLLDDEQPLRLRLLAGPSDKALSFVLKENDSGEVNWDAFSMPEPHNFLRILQREEEEHLRQILQKYSYCRQKIQEALHACPLG [chain 1 L301P] was around 0.32.

Variants of B3 are the subject of a further test. Put plainly: co-immunoprecipitation (IP anti-myc, IB anti-GFP), band quantification; n = 3; parent: 1.02; read off a plot.
Consider chain 1 MTVDSSMSSGYCSLDEELEDCFFTAKTTFFRNAQSKHLSKNVCKPVEETQRPPTLQEIKQKIDSYNTREKNCLGMKLSEDGTYTGFIKVHLKLRRPVTVPAGIRPQSIYDAIKEVNLAATTDKRTSFYLPLDAIKQLHISSTTTVSEVIQGLLKKFMVVDNPQKFALFKRIHKDGQVLFQKLSIADRPLYLRLLAGPDTEVLSFVLKENETGEVEWDAFSIPELQNFPTILEKEEQDKIQQVQKKYDKFRQKLEEALRESQGKPG [chain 1 L228P], for which the ratio to parent is around 0.9. As for chain 1 MTVDSSMSSGYCSLDEELEDCFFTAKTTFFRNAQSKHLSKNVCKPVEETQRPPTLQEIKQKIDSYNTREKNCLGMKLSEDGTYTGFIKVHLKLRRPVTVPAGIRPQSIYDAIKEVNLAATTDKRTSFYLPLDAIKQLHISSTTTVSEVIQGLLKKFMVVDNPQKFALFKRIHKDGQVLFQKLSIADRPLYLRLLAGPDTEVLSFVLKENETGEVEWDAFSIPEPQNFLTILEKEEQDKIQQVQKKYDKFRQKLEEALRESQGKPG [chain 1 L224P], the ratio to parent is around 0.98. Turning to chain 1 MTVDSSMSSGYCSLDEELEDCFFTAKTTFFRNAQSKHLSKNVCKPVEETQRPPTLQEIKQKIDSYNTREKNCLGMKLSEDGTYTGFIKVHLKLRRPVTVPAGIRPQSIYDAIKEVNLAATTDKRTSFYLPLDAIKQLHISSTTTVSEVIQGLLKKFMVVDNPQKFALFKRIHKDGQVLFQKLSIADRPLYLRLLAGPDTEVLSFVLKENETGEVEWDAFSIPELQNFLTIPEKEEQDKIQQVQKKYDKFRQKLEEALRESQGKPG [chain 1 L231P], the ratio to parent is around 0.85.

In a further test the parent is B4. The test can be described thus: FRET-FLIM in cells (EGFP donor lifetime, monoexponential fit, wide-field imaging); co-expressed with mCherry-SARAH(MST1); median of segmented cells; parent: 2.27e+03; read off a plot.
Consider chain 1 MTVDSSMSSGYCSLDEELEDCFFTAKTTFFRNAQSKHLSKNVCKPVEETQRPPTLQEIKQKIDSYNTREKNCLGMKLSEDGTYTGFIKVHLKLRRPVTVPAGIRPQSIYDAIKEVNLAATTDKRTSFYLPLDAIKQLHISSTTTVSEVIQGLLKKFMVVDNPQKFALFKRIHKDGQVLFQKLSIADRPLYLRLLAGPDTEVLSFVLKENETGEVEWDAFSIPELQNFPTILEKEEQDKIQQVQKKYDKFRQKLEEALRESQGKPG [chain 1 L228P], for which the response was around 2490 ps. Same read-out and setting: to chain 1 MTVDSSMSSGYCSLDEELEDCFFTAKTTFFRNAQSKHLSKNVCKPVEETQRPPTLQEIKQKIDSYNTREKNCLGMKLSEDGTYTGFIKVHLKLRRPVTVPAGIRPQSIYDAIKEVNLAATTDKRTSFYLPLDAIKQLHISSTTTVSEVIQGLLKKFMVVDNPQKFALFKRIHKDGQVLFQKLSIADRPLYLRLLAGPDTEVLSFVLKENETGEVEWDAFSIPEPQNFLTILEKEEQDKIQQVQKKYDKFRQKLEEALRESQGKPG [chain 1 L224P] belongs around 2380 ps; to chain 1 MTVDSSMSSGYCSLDEELEDCFFTAKTTFFRNAQSKHLSKNVCKPVEETQRPPTLQEIKQKIDSYNTREKNCLGMKLSEDGTYTGFIKVHLKLRRPVTVPAGIRPQSIYDAIKEVNLAATTDKRTSFYLPLDAIKQLHISSTTTVSEVIQGLLKKFMVVDNPQKFALFKRIHKDGQVLFQKLSIADRPLYLRLLAGPDTEVLSFVLKENETGEVEWDAFSIPELQNFLTIPEKEEQDKIQQVQKKYDKFRQKLEEALRESQGKPG [chain 1 L231P], around 2430 ps.
